Laboratory results reported in publication PMC8553427.

Target: T1, AtMYB5trunc (truncated MYB5, MYB DNA-binding domain) (Arabidopsis thaliana (Col)) (UniProt Q38850)
T1 sequence: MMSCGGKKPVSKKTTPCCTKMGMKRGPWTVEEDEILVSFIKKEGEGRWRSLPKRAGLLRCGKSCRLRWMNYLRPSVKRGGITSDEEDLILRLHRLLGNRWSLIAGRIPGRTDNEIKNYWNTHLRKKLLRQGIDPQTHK
Assay: EMSA
Details: 20 mM NaCl, 5 mM MgCl2, 20 mM Tris pH 8.0, 10% glycerol, 0.5 mM EDTA, 0.5 mM DTT, poly d(I-C); temperature not stated

CGATGGTCACTTTCCTCATACTCTTTCTATATTGACTGTTAGTTTCTGGTCATTCTCGAAACAAACACTACATTGACTGTTAGATTTCTCATTTCAACCAAAGTAAGTAATAAATTCTGAACC (double strand) [ABE4 promoter probe]
binding: binds more weakly
